Laboratory results taken from patent US20180265850A1.

Legend:
[1] = target: human FKBP (12 kD, GenBank accession number: AAP36774.1) (human) (UniProt P62942); assay: cell-based or functional assay
[2] = target: FRB (11 kD, PDB access number: 1AUE A) (UniProt P42345); assay: cell-based or functional assay

human FKBP (12 kD, GenBank accession number: AAP36774.1) (human), sequence (P62942 whole entry): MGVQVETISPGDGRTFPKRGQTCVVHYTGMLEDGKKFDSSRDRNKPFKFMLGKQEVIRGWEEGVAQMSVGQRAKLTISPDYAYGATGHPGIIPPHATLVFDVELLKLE
human FKBP (12 kD, GenBank accession number: AAP36774.1), sequence (P62942 whole entry): as above

bioluminescence intensity of probe TPv2.4 (printed 'TPv2') in COS-7 lysate, 10^-6 M rapamycin vs vehicle [1] | bioluminescence of living COS-7 cells expressing TPv2.4 on a microslide, 10^-6 M rapamycin vs control [1] | bioluminescence of probe TPv2.7 (FRB-ALuc30(1-212)-FKBP), 10^-6 M rapamycin vs vehicle [1] | bioluminescence of probe TPv2.8 (FRB-ALuc30(19-212)-FKBP), 10^-6 M rapamycin vs vehicle [1] | luminescence intensity of cells expressing TPv2.4, 10^-6 M rapamycin [1] | optical intensity of probe TPv1.3 (printed 'TPv11.3'; FKBP-ALuc23(1-212)-FRB) with 10^-6 M rapamycin (fraction of intensity without rapamycin) [2] | optical intensity of probe TPv1.7 (FKBP-ALuc30(1-212)-FRB) with 10^-6 M rapamycin (fraction of intensity without rapamycin) [2] | Substance
6.7 fold | 6 fold | 2 fold | 2 fold | 5.4 fold |  |  | FRB (11 kD, PDB access number: 1AUE A) (from UniProt P42345 2015-2114)
 |  |  |  |  | 0.33 | 0.33 | human FKBP (12 kD, GenBank accession number: AAP36774.1) (from UniProt P62942 1-108)
